Source: patent US9676849B2, “Enhancement of transport of therapeutic molecules across the blood brain barrier” (Biogen Idec MA Inc., priority 2012, dated 2017)

B1: FC5: llama single domain VHH antibody binding TMEM30A, SEQ ID NO: 10, with myc and His tags (protein)
VHH: EVQLQASGGGLVQAGGSLRLSCAASGFKITHYTMGWFRQAPGKEREFVSRITWGGDNTFYSNSVKGRFTISRDNAKNTVYLQMNSLKPEDTADYYCAAGSTSTATPLRVDYWGKGTQVTVSS
modifications: myc and His tags

Experiments:
[1] = system: SV-ARBEC; assay: Fluorescent flow cytometry binding to SV40 transformed rat BBB endothelial cells; settings: SV40 transformed cell line vs primary cells
Description: (§1) The binding affinity of each molecule was evaluated in separate Fluorescent Flow Cytometry assay using freshly isolated rat BBB endothelial cells, SV40 transformed rat BBB endothelial cells (Caram-Salas, N., Boileau, E., Farrington, G. K., Garber, E., Brunette, E., Abulrob, A., and Stanimirovic, D. Methods in molecular biology 763, ed. 2010, 383-401) and to Hek293 cells transiently transfected with the previously identified target TMEM30A.

[2] = system: immortalized adult rat brain endothelial cells (SV-ARBEC); assay: In vitro transport rate across BBB endothelial cell monolayer; format: in vitro ADME; settings: compared with control antibodies 12F6A, CRL2434 and C37H; FIG. 3
Description: We used an in vitro BBB endothelial cell layer to model in vivo cross BBB flux rates for each FC5 containing protein. The in vitro model uses a monolayer of immortalized adult rat brain endothelial cells (SV-ARBEC) in a monolayer assay system validated for tightness with small molecules (Garberg, P., Ball, M., Borg, N., Cecchelli, R., Fenart, L., Hurst, R. D., Lindmark, T., Mabondzo, A., Nilsson, J. E., Raub, T. J., Stanimirovic, D., Terasaki, T., Oberg, J. O., and Osterberg, T. (2005) Toxicol In Vitro 19(3), 299-334). The methods for the in vitro flux rate determinations are nearly identical to those described in (Caram-Salas, N., Boileau, E., Farrington, G. K., Garber, E., Brunette, E., Abulrob, A., and Stanimirovic, D. Methods in molecular biology 763, ed. 2010, 383-401).

[3] = Circulating pharmacokinetics of FC5 containing molecules in rats; format: in vivo; settings: rat, intraperitoneal 3 mpk; for Beta-phase half life (h), assay format Fluorescence: AL680 labeled molecules, fluorescence from sera
Description: To understand the exposure of the BBB endothelium to each of the FC5 containing antibodies the pharmacokinetics the molecules were determined in rats. Animals were dosed intraperitoneally at 3 mpk with either the FC5 Vhh N-terminally (FC5-Fc) or C-terminally (Fc-FC5) fused to a human Fc domain. Concentrations of FC5-Fc or Fc-FC5 in the plasma were determined at various time points by ELISA. The results were analyzed to determine the beta-phase half-lives of each construct (Table II).
Half-life was determined by ELISA detection of the human Fc from rat serum or with AL680 labeled molecules and the fluorescence determined from the sera. No difference was observed between molecules in which the half-life was determined by fluorescence versus ELISA. Molecules were injected intraperitoneal at 3 mpk.

[4] = target: T1, mu pain receptors (Rattus norvegicus, UniProt P33535); assay: Hargreaves model of thermal pain, Dalargin alone or linked; format: in vivo; settings: for Fold potency compared to FC5-Dal in Hargreaves model: IV, based on molar ratio of Dalargin injected
T1 construct: from tissue; host or cells: rat brain (periaqueductal region), in vivo
Description: The Hargreaves model measures increased sensitivity to thermal pain induced by injection of Freud's adjuvant in a paw. The thermal pain can be suppressed upon binding of a six amino acid peptide Dalargin to the mu pain receptors expressed in the peri-aquaductal portion of the brain. […] Thus intravenously injected Dalargin must be linked to a receptor mediated transporter to allow cross BBB transport and suppression of pain. To evaluate the transport of Dalargin mediated by FC5 containing molecules across the BBB the Hargreaves animal model was used to compare the potency of various molecular forms of FC5 Vhh linked to Dalargin. The negative control molecule for FC5-Dalargin was EG2-Dalargin and for FC5-Fc-Dalargin was Fc-FC5-Dalargin.
Prior to intravenous (IV) injection each molecule was initially tested by intracerebroventricular (ICV) injection as a positive control to insure all linked molecules are functionally active and able to induce pain suppression. Both negative control and positive test molecules would be expected to suppress pain upon ICV injection as the molecules are injected directly into the cerebral spinal fluid and are able to diffuse to and block the periacquiductal mu pain receptors. […] Next each Dalargin labeled molecule and corresponding Dalargin labeled control protein were evaluated for efficacy upon IV administration. Initially, the efficacy of FC5-Dal versus the control (EG2-Dal) was compared. […] It is interesting to note that three doses of FC5-Dal at 7.5 mg per kg (mpk) per dose as needed prior to observing the initial pain suppression.
Chronic pain suppression is expressed as the percentage of maximum possible effect (% MPE). The value is based on the area under the curve for pain suppressed animal relative to the contralateral control paw over the time frame of measurement. The efficacy of molecules injected either ICV or IV is shown as a percent of maximum possible effect (% MPE) in the Hargreaves model. […] Dose in mpk for intravenous (IV) dosing values are indicated as per injection followed by the number of injections.

[5] = system: Primary rat BBB EC; assay: Fluorescent flow cytometry binding to primary rat BBB endothelial cells; settings: read-out: Affinity (nM), Primary rat BBB EC
Description: as §1

T1 sequence (P33535 whole entry): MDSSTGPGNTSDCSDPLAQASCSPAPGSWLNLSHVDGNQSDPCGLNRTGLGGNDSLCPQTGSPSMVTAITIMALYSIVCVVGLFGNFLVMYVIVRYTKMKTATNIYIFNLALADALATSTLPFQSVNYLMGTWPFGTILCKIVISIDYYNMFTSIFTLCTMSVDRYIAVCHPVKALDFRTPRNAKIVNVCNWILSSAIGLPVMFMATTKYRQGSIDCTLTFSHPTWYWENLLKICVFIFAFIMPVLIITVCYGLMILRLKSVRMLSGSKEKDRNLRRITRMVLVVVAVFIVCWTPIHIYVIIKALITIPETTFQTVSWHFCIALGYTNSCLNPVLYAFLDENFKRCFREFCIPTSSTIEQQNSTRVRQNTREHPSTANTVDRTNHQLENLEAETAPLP

| Molecule | fold weaker binding than to primary rat BBB endothelial cells [1] | rate of transport across in vitro SV40 rat BBB transformed endothelial cell line [2] | half-life when fused to a human Fc compared with FC5 Vhh alone [3] | Beta-phase half life (h), assay format Fluorescence [3] [h] | Beta-phase half life (h), assay format ELISA ([3]; ELISA detection of human Fc from rat serum) [h] | Fold potency compared to FC5-Dal in Hargreaves model [4] [fold] | average % MPE after the first 0.5 h ([4]; rat, single IV dose 0.5 mpk) [% MPE] | Kd [5] [nM] |
| --- | --- | --- | --- | --- | --- | --- | --- | --- |
| FC5-Fc | about 7 fold | increased rate of transport | significantly longer | 39.4 | 35.7 | 80 | 50 | – |
| Fc-FC5 | – | increased rate of transport | significantly longer | 38.6 | – | <0.1 | – | – |
| B1 | – | increased rate of transport | – | – | – | 1 | – | > 2000 |
